According to patent publication US8420776B2, “Ube2G2 binding domain in the ubiquitin ligase gp78 and methods of use thereof” (The United States of America, as Represented by the …, priority 2004, dated 2013):

T1: Myc-Ube2G2 (Mus musculus, UniProt P60605)
T1 construct: expressed in transfected cells; host or cells: HEK 293T
T1 sequence (P60605 1-165): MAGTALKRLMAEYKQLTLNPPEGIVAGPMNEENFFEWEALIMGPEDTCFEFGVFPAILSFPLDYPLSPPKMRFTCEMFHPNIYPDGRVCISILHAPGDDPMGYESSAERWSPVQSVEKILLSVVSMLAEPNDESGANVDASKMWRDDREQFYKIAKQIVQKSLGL

B1: gp78611: gp78 truncated after residue 611 of SEQ ID NO:2 (protein, listed as Homo sapiens)
chain: MPLLFLERFPWPSLRTYTGLSGLALLGTIISAYRALSQPEAGPGEPDQLTASLQPEPPAPARPSAGGPRARDVAQYLLSDSLFVWVLVNTACCVLMLVAKLIQCIVFGPLRVSERQHLKDKFWNFIFYKFIFIFGVLNVQTVEEVVMWCLWFAGLVFLHLMVQLCKDRFEYLSFSPTTPMSSHGRVLSLLVAMLLSCCGLAAVCSITGYTHGMHTLAFMAAESLLVTVRTAHVILRYVIHLWDLNHEGTWEGKGTYVYYTDFVMELTLLSLDLMHHIHMLLFGNIWLSMASLVIFMQLRYLFHEVQRRIRRHKNYLRVVGNMEARFAVATPEELAVNNDDCAICWDSMQAARKLPCGHLFHNSCLRSWLEQDTSCPTCRMSLNIADNNRVREEHQGENLDENLVPVAAAEGRPRLNQHNHFFHFDGSRIASWLPSFSVEVMHTTNILGITQASNSQLNAMAHQIQEMFPQVPYHLVLQDLQLTRSVEITTDNILEGRIQVPFPTQRSDSIRPALNSPVERPSSDQEEGETSAQTERVPLDLSPRLEETLDFGEVEVEPSEVEDFEARGSRFSKSADERQRMLVQRKDELLQQARKRFLNKSSEDDAASESF
B2: gp78595: gp78 truncated after amino acid 595 of SEQ ID NO:2 (protein, listed as Homo sapiens)
chain: MPLLFLERFPWPSLRTYTGLSGLALLGTIISAYRALSQPEAGPGEPDQLTASLQPEPPAPARPSAGGPRARDVAQYLLSDSLFVWVLVNTACCVLMLVAKLIQCIVFGPLRVSERQHLKDKFWNFIFYKFIFIFGVLNVQTVEEVVMWCLWFAGLVFLHLMVQLCKDRFEYLSFSPTTPMSSHGRVLSLLVAMLLSCCGLAAVCSITGYTHGMHTLAFMAAESLLVTVRTAHVILRYVIHLWDLNHEGTWEGKGTYVYYTDFVMELTLLSLDLMHHIHMLLFGNIWLSMASLVIFMQLRYLFHEVQRRIRRHKNYLRVVGNMEARFAVATPEELAVNNDDCAICWDSMQAARKLPCGHLFHNSCLRSWLEQDTSCPTCRMSLNIADNNRVREEHQGENLDENLVPVAAAEGRPRLNQHNHFFHFDGSRIASWLPSFSVEVMHTTNILGITQASNSQLNAMAHQIQEMFPQVPYHLVLQDLQLTRSVEITTDNILEGRIQVPFPTQRSDSIRPALNSPVERPSSDQEEGETSAQTERVPLDLSPRLEETLDFGEVEVEPSEVEDFEARGSRFSKSADERQRMLVQRKDELLQQARK
B3: wild type gp78: full-length wild type human gp78 ubiquitin ligase expressed in cells (protein, listed as Homo sapiens)
chain: MPLLFLERFPWPSLRTYTGLSGLALLGTIISAYRALSQPEAGPGEPDQLTASLQPEPPAPARPSAGGPRARDVAQYLLSDSLFVWVLVNTACCVLMLVAKLIQCIVFGPLRVSERQHLKDKFWNFIFYKFIFIFGVLNVQTVEEVVMWCLWFAGLVFLHLMVQLCKDRFEYLSFSPTTPMSSHGRVLSLLVAMLLSCCGLAAVCSITGYTHGMHTLAFMAAESLLVTVRTAHVILRYVIHLWDLNHEGTWEGKGTYVYYTDFVMELTLLSLDLMHHIHMLLFGNIWLSMASLVIFMQLRYLFHEVQRRIRRHKNYLRVVGNMEARFAVATPEELAVNNDDCAICWDSMQAARKLPCGHLFHNSCLRSWLEQDTSCPTCRMSLNIADNNRVREEHQGENLDENLVPVAAAEGRPRLNQHNHFFHFDGSRIASWLPSFSVEVMHTTNILGITQASNSQLNAMAHQIQEMFPQVPYHLVLQDLQLTRSVEITTDNILEGRIQVPFPTQRSDSIRPALNSPVERPSSDQEEGETSAQTERVPLDLSPRLEETLDFGEVEVEPSEVEDFEARGSRFSKSADERQRMLVQRKDELLQQARKRFLNKSSEDDAASESFLPLEGASSDPVTLRRRMLAAAAERRLQKQQTS

Tests used:
Format in all cases: cell-based
[1] = system: ERAD substrate CD3-δ; assay: Cycloheximide chase of CD3-δ in co-transfected cells; settings: co-transfection with HA-CD3-δ
Procedure: (§1) Transfections of HT1080, NIH 3T3 and HEK 293T cells were carried out ˜24 hr after plating using Polyfect (Qiagen, Valencia, Calif.) and cells harvested after ˜48 hr. J558 cells were transfected by electroporation using Bio-rad GENE pulser II at settings of 250 v, 950uF. Vector without insert was used to equalize total plasmid. In most experiments 0.15 μg of pEGFP-C1 served as an internal control. For experiments not involving immunoprecipitation, 6×10^5 cells were plated in 6 well plates and cell lysis was with Mammalian Protein Extraction Reagent (Pierce). For immunoprecipitation, 2.4×10^6 cells were seeded in 100 mm dishes and cells were lysed in RIPA buffer (1×PBS, 1% Nonidet P40. 0.5% sodium deoxycholate, 0.1% SDS). Lysis buffers were supplemented with Protease Inhibitor Cocktail (Sigma) and 10 mM iodoacetamide. Supernatants were analyzed after a 10,000×g centrifugation using standard techniques for immunoprecipitation, SDS-PAGE, immunoblotting and ECL. Treatment of cells with MG132 (Sigma) was at 50 μM for eight hr. Cycloheximnide was used at 50 μg/ml. All cells were collected at the end of the six hr chase.
(§2) To evaluate protein turnover in more detail, cycloheximide chase experiments were performed (FIGS. 20C and 20D). […] In agreement with FIG. 20A, CD3-δ degradation was accelerated with wild type gp78 (FIGS. 20C and 20D middle panels; effects of full-length forms of gp78 on CD3-δ from FIGS. 20C and 20D are quantified in FIG. 20E).

[2] = molecular target: T1, Myc-Ube2G2; assay: Co-immunoprecipitation with co-expressed Myc-Ube2G2 in cells; settings: anti-Myc IP, anti-gp78 IB; MG132 8 hr
Procedure: as §1
FIG. 5 depicts the results of immunoprecipitation of Ube2G2 (MmUbc7) from HEK 293T cells co-transfected with a plasmid encoding myc-tagged MmUbc7/Ube2G2 together with s plasmid encoding various forms of gp78. HEK 293T cells were transfected with a plasmid encoding myc-tagged MmUbc7/Ube2G2 together with plasmids encoding various forms of gp78. After 48 hours, cells were harvested and co-immuntoprecipitated with an anti-Myc tage. Anti-gp78 was used for detection. “R2M” indicates a mutation of two crucial residues in the RING finger. “T” indicates C terminal truncations at the indicated amino acids. ΔB is the mutation indicated above in FIG. 4 in the context of the full length gp78 and “Cue12M” indicates mutations in the Cue domain of gp78.
To confirm the significance of the Ube2G2 binding site in cells, a variety of mutations and truncations of full-length gp78 were tested for binding of co-expressed Myc-Ube2G2 (FIG. 19A). Cells were treated with the proteasome inhibitor MG132 in an attempt to equalize levels of the various forms of gp78.

[3] = system: gp78; assay: Cycloheximide chase of gp78 in transfected cells; settings: compared to wild type gp78
Procedure: as §1, §2

[4] = system: ERAD substrate CD3-δ; assay: CD3-δ level in co-transfected cells by immunoblotting; settings: co-transfection with CD3-δ; immunoblot
Procedure: as §1
FIG. 7 depicts the stabilization of CD3-δ protein in cells transfected with the G2BD, but not with the G2BD with amino acids 579-584 (of SEQ ID NO:2) mutated. HEK 293T cells were transfected with the ERAD substrate CD3-δ along with the indicated GFP fusions of gp78. The left and right sides are two separate experiments.
To test this, GFP fusions of either a minimal E2 binding domain (GFP-574-611) or a more extended region that includes the C-terminus of gp78 (GFP-574-643) were evaluated (FIG. 21A). […] To assess this further, the C-terminal region of gp78 was fused to the eight amino acid Flag tag. […] Mdm2 is a RING finger E3 for both itself and p53 that is neither an ERAD substrate nor known to utilize Ube2G2 as an E2. […] To establish with certainty that the effect observed with expression of the Ube2G2 binding site is a consequence of binding endogenous E2, and not due to other unanticipated effects, cells were co-transfected with increasing amounts of Ube2G2 (FIG. 21C, lanes 3 and 4). […] These findings clearly establish that the isolated E2 binding site has the potential to markedly alter ERAD of CD3-δ. To ensure the effect observed was not peculiar to one substrate, TCR-α was evaluated (FIG. 21D).

[5] = system: gp78; assay: gp78 ubiquitylation in transfected cells (IP anti-gp78, IB anti-ubiquitin); settings: 50 μM MG132 eight hours
Procedure: FIGS. 20A-20E depict the requirement of multiple domains of gp78 to target itself and a heterologous ERAD substrate. (FIG. 20A) Cells were co-transfected with the indicated forms of full length gp78 together with CD3-δ and lysates analyzed by IB. (B) Cells were transfected with wild type and mutant gp78 plasmids as indicated. Samples were treated with 50 μM MG132 for eight hours, lysates IP'ed with anti-gp78 followed by […] with either antiubiquitin (upper) or anti-gp78 (lower). Arrow in upper panel indicates migration of unmodified gp78. (FIGS. 20C and 20D) Cells were co-transfected with HA-CD3-δ and wild type (WT) or mutant forms of gp78. Cells were treated with cycloheximide (CHX) as indicated. (FIG. 20E) Graphic representation of CD3-δ levels from FIGS. 20C and 20D (fall length gp78 transfections only), Cue-m1, 2 is the average of data shown in FIGS. 20C and 20D.
as §1, with “Lysis buffers were supplemented with Protease Inhibitor Cocktail (Sigma) and 10 mM iodoacetamide.” left out, “Treatment of cells with MG132 (Sigma) was at 50 μM for eight hr. Cycloheximnide was used at 50 μg/ml. All cells were collected at the end of the six hr chase.” left out
gp78 is degraded in a proteasome-dependent manner, and deletion of the entire cytoplasmic domain results in its stabilization. […] To determine the significance of the RING finger, Cue domain and Ube2G2 binding site on gp78 stability, mutations of each were evaluated within full-length gp78. […]

| Molecule | effect on CD3-δ degradation [1] | E2 association of full-length gp78 forms with co-expressed Myc-Ube2G2 [2] | gp78 stability [3] | effect on CD3-δ level (stabilization) [4] | gp78 ubiquitylation (ubiquitin immunoreactivity) [5] |
| --- | --- | --- | --- | --- | --- |
| B1 | enhanced loss of CD3-δ | retained E2 binding | did not stabilize gp78 | – | – |
| B2 | minimal stabilization of CD3-δ | loss of E2 binding | stabilized gp78 | – | – |
| B3 | accelerated | – | – | decreased CD3-δ levels | ubiquitylation was observed |
